Reference: the Human Domainome abundance scans (Beltran et al. 2025)

B1: Pituitary-specific positive transcription factor 1, residues 130 to 198; numbered along this chain, P28069 (parent)
chain: RELEKFANEFKVRRIKLGYTQTNVGEALAAVHGSEFSQTTICRFENLQLSFKNACKLKAILSKWLEEAE
B2: POU domain, class 4, transcription factor 1, residues 266 to 347; numbered along this chain, Q01851 (parent)
chain: RELEAFAERFKQRRIKLGVTQADVGSALANLKIPGVGSLSQSTICRFESLTLSHNNMIALKPILQAWLEEAEGAQREKMNKP

Variants of: B1
Experiment: abundance fitness (aPCA) (normalised: wild type 0, dead -1); higher = more abundant; growth selection in yeast, the domain comes from the species named
Settings: Homo sapiens

Abundance fitness: each site, then its substitutions
E66: Y -0.304 | R -0.241 | Q -0.193 | M -0.332 | N -0.373 | S -0.335 | T -0.115 | W -0.562 | V -0.123
E67: S -0.088 | H -0.34 | N -0.134 | L -0.594 | R -0.172 | W -0.203 | A -0.214 | C -0.301 | K -0.18 | Q -0.125 | P -0.721 | T -0.371 | D 0.002 | F -0.49 | V -0.39 | Y -0.36
A68: G -0.664 | I 0.128 | V -0.071 | D -0.78 | L -0.778 | H -0.271 | N -0.24 | R -0.232 | K 0.047 | E -0.003 | S -0.518 | T -0.05 | C -0.752 | M -0.061 | F -0.747
E69: P -0.433 | R -0.706 | S -0.4 | L -0.719 | C -0.537 | Q -0.635 | F -0.616 | A -0.436 | D -0.28 | V -0.874

Variants of: B2
Experiment: as above
Settings: Homo sapiens

Abundance fitness of substitutions, site by site:
F6: S -0.516 | N -0.79 | Q -0.622 | E -0.359 | V -0.378 | K -1 | D -0.442 | I -0.318 | L -0.362 | W -0.139 | R -0.987 | T -0.452 | P -0.951 | C -0.478 | G -0.906
K11: W -0.707 | S -0.104 | I -0.293 | Q -0.107 | R 0.023 | G -0.465 | E -0.476 | T -0.017 | V -0.142 | Y -0.642 | F -0.627 | A -0.023 | P -0.833 | L -0.406 | H 0.175 | M -0.117 | N -0.422
R14: A -0.919 | V -0.932 | L -0.768 | K -1.09 | N -0.923 | P -1.13 | Q -1.08 | M -0.914 | I -0.866 | H -1.16 | W -1.02 | S -0.906 | D -0.952 | F -1.07 | Y -0.884 | G -1.07
L3: D -0.366 | G -0.523 | I -0.02 | E -0.247 | K -0.564 | N -0.287 | T -0.26 | Q -0.262 | W -0.352 | H -0.203 | F -0.103 | Y -0.107 | A -0.162 | R -0.622 | S -0.374 | M -0.029 | C -0.901 | V -0.053
R1: V -0.09 | M 0.004 | Q -0.325 | T -0.011 | C -0.053 | E 0.007 | I 0.039 | S -0.026 | G -0.05 | F 0.028 | H -0.326 | Y -0.076 | D 0.008 | N 0.02 | A -0.132 | W -0.134 | L -0.084
E4: F -0.054 | A -0.071 | R -0.065 | G -0.166 | T -0.031 | I 0.107 | Q -0.035 | W -0.057 | L -0.134 | C -0.149 | H 0.108 | N -0.086 | Y -0.153 | D -0.031 | M 0.04 | P -0.361 | K 0.056 | S -0.091
F10: L -0.515 | C -0.867 | S -0.914 | G -0.897 | N -0.822 | T -0.853 | M -0.56 | D -0.804 | Q -1.04 | K -0.9 | H -0.92 | A -0.762 | I -0.676 | Y -0.599 | E -0.916 | W -0.237 | R -0.996 | P -0.908
Q12: K -0.029 | V -0.117 | N 0.031 | W -0.339 | I -0.144 | T -0.021 | D -0.027 | H -0.097 | P -0.896 | R -0.14 | M -0.034 | L -0.078 | G -0.205 | A -0.004 | E 0.015 | Y -0.13 | F -0.133 | C -0.466 | S -0.06
R9: Y -0.035 | F -0.178 | N 0.012 | E -0.019 | T 0.058 | H -0.003 | L 0.061 | V -0.047 | G -0.015 | K -0.143 | M 0.005 | D -0.122 | W -0.154 | Q -0.043 | C -0.007 | I -0.004
L17: K -0.62 | C -0.31 | H -0.54 | E -0.804 | G -0.802 | F -0.309 | I -0.126 | A -0.346
A5: V -0.06 | F 0.042 | S -0.005 | H -0.063 | N 0.106 | D -0.043 | K 0.042 | Y -0.171 | P -0.451 | I 0.184 | G -0.039 | L 0.037 | C -0.162 | R 0.006 | Q 0.047 | T -0.065 | M 0.016
R13: I -0.09 | F -0.203 | M -0.023 | D -0.253 | V -0.065 | Q -0.053 | L -0.148 | G 0.013 | A -0.026 | S 0.014 | H -0.103 | E -0.065 | W -0.321 | C -0.369 | T 0.008 | K -0.048 | N -0.156 | P -1.06
E2: D 0.023 | L -0.332 | Y -0.236 | H -0.194 | R -0.266 | S -0.139 | C -0.306 | G -0.102 | M -0.17 | T -0.195 | Q -0.16 | K -0.069 | A -0.267 | F -0.245 | P -0.437 | W -0.508 | N 0.025 | V -0.345 | I -0.266
K16: L -0.071 | R 0.035 | P -0.888 | A 0.085 | D 0.029 | H -0.029 | I -0.104 | C -0.004 | F -0.138 | E 0.063 | Q 0.027 | W -0.177 | N 0.011 | T -0.032 | Y -0.129 | S 0.013
I15: P -0.989 | E 0.02 | M 0.005 | S -0.138 | V -0.023 | L -0.022 | F -0.322 | Q -0.013 | D -0.211 | A -0.099 | G -0.286 | R -0.037 | H -0.083 | W -0.243 | Y -0.332 | N -0.113 | C -0.048
A7: R -0.594 | D -1.11 | K -0.489 | P -0.525 | M -0.395 | F -0.721 | S -0.203 | Q -0.712 | G -0.594 | C -0.018 | N -0.582 | E -0.884 | V 0.007 | Y -0.708 | T -0.138 | H -0.668 | L -0.656
E8: F -0.223 | C -0.238 | R -0.002 | I -0.234 | S 0.014 | Y -0.017 | T -0.078 | H -0.164 | V 0.015 | N 0.063 | W -0.284 | M -0.069 | D -0.13 | P -0.749 | A -0.008 | G -0.048 | L 0.018 | Q -0.019
